Experimental findings from article PMC4119023 are described below.

Changes are numbered by the printed parent chain. In names and notes the source's numbering stands.

Substrate in data set [1]: Cc1cc(=O)oc2c(F)c(OP(=O)(O)O)c(F)cc12
The data set can be described thus: steady-state phosphatase assay. It counts as biochemical, Kluyveromyces lactis. As to conditions: 50 mM MES pH 5.5, 30 °C, 10 μM enzyme.

Substrate in data set [2]: Cc1cc(=O)oc2c(F)c(OP(=O)(O)O)c(F)cc12
The data set can be described thus: steady-state phosphatase assay. Conditions: 50 mM MES pH 5.5, 30 °C, 10 μM enzyme. The class given is biochemical, Homo sapiens.

B1: KlRtr1 FL (Kluyveromyces lactis NRRL Y-1140) (protein)
chain: MATIEEIKEVVLKPYTNHRQLTIREVETISINLIDLLITKDVKDARTMKYISRFLTKQDYADLVQERNLVKRCGYPLCSKSQARVRDPFADVQMTNFLRQNNPYAYLTEYCTKAHFRCSQFYQFQLSDEALFARVGVHLDDYEPPSEIQLLEEVLARESDVKQMIRGMTDLKLADDDSREEMERDISDMLADIKIVEINEPNIIGDLGRDR
Regarding B1, in data set [1] (EDTA-treated enzyme), the Km worked out at 587 ± 70 µM and the kcat worked out at 0.001 ± 3e-05 s⁻¹.

B2: KlRtr1 FL (Kluyveromyces lactis NRRL Y-1140; E197Q) (protein)
chain: B1 chain with E197Q
With B2, in data set [1] (EDTA-treated enzyme), the Km came out at 529 ± 45 µM and the kcat was found to be 0.0016 ± 4e-05 s⁻¹.

B3: KlRtr1 NTD (Kluyveromyces lactis NRRL Y-1140) (protein)
chain: MATIEEIKEVVLKPYTNHRQLTIREVETISINLIDLLITKDVKDARTMKYISRFLTKQDYADLVQERNLVKRCGYPLCSKSQARVRDPFADVQMTNFLRQNNPYAYLTEYCTKAHFRCSQFYQFQLSDEALFARVGVHLDDYEPPSEIQLLEEVLA
B3: in data set [1], the Km was 694 ± 74 µM and the kcat came out at 0.0015 ± 5e-05 s⁻¹.

B4: hRPAP2 NTD (Homo sapiens) (protein)
chain: MADFAGPSSAGRKAGAPRCSRKAAGTKQTSTLKQEDASKRKAELEAAVRKKIEFERKALHIVEQLLEENITEEFLMECGRFITPAHYSDVVDERSIVKLCGYPLCQKKLGIVPKQKYKISTKTNKVYDITERKSFCSNFCYQASKFFEAQIPKTPVWVREEERHPDFQLLKEEQSGHSGEEVQLCSKAI
Regarding B4, in data set [2], the Km was determined as 1668 ± 205 µM and the kcat came to 0.0005 ± 3e-05 s⁻¹.
